Key:
Format in all cases: physicochemical
[1] = Viscosity measured with a rotation viscometer; details: gel from 1% solution in phosphate buffered physiological saline, photoirradiated, heat treatment; rotation viscometer at 20° C., standard cone (1°34′, 1 rpm)
Description: A 1% phosphate buffered physiological saline solution of the obtained naproxen-introduced photo-reactive HA (photo-reactive group: cinnamic acid) was prepared, and filled in a 5 mL glass syringe.
(§1) Evaluation was carried out in accordance with the following criteria.

[2] = Extrusion state from the tip of a 23 G injection needle (characteristics); design: key: ◯: formed a mass or a lump having a shape-maintaining property at the tip of the injection needle; X: did not form a mass; details: slowly extruded from an injection needle with 23 G downward
Description: as §1

[3] = Extrusion feeling through a 23 gauge injection needle; design: key: ◯: easily extruded; X: difficulty extruded; details: whole gel (2 ml to 5 ml) in 5 ml syringe, 23 gauge needle, limit pressure 0.5 to 5 kg/cm^2
Description: Evaluation was carried out in accordance with the following criteria. ◯: easily extruded X: difficulty extruded Incidentally, with regard to the criteria for the extrusion feeling, within the range of a limit pressure (0.5 to 5 kg/cm^2), when a whole gel (2 ml to 5 ml) filled in a syringe having a volume of 5 ml was extruded through an injection needle of 23 gauge, it was evaluated to as easily extruded (◯). Also, according to the same operation, when not a whole gel filled in a syringe was extruded, for example, by clogging due to insoluble materials, it was evaluated to as difficulty extruded (X).

Substance | viscosity [1] [Pa·s] | Extruded state [2] | Extrusion feeling [3]
actarit-introduced photo-crosslinked HA gel [Example 8] | 10.8 | ◯ | ◯
etodolac-introduced photo-crosslinked HA gel [Example 7] | 12.7 | ◯ | ◯
felbinac-introduced photo-crosslinked sodium hyaluronate gel [Example 5] | 7.32 | X | ◯
flurbiprofen-introduced photo-crosslinked HA gel [Example 4] | 21.2 | ◯ | ◯
ibuprofen-introduced photo-crosslinked HA gel [Example 3] | 13.1 | ◯ | ◯
